The source of these data is PMC10939073, “The major inducible small heat shock protein HSP20-3 in the tardigrade Ramazzottius varieornatus forms filament-like structures and is an active chaperone” (Cell Stress & Chaperones, 2023).

The labels stand for the following.
B1: Ramazzottius varieornatus small heat shock protein HSP20-6 (natural protein, UniProt A0A1D1VFU2 1-195, looked up)
chain: MSRNLARLLPQITNMLDTPFRRAVTPFNRYRWPASSLGFFDREFERMSNMMDRMHNDLWHSSSLLENPQGSQRGKMNQDLFNIVEENGKKKMRIIFEAERCKPEDIEIKAKGNHLEIKARTEEKGEHFQSIQEYSQYLTLPEGVKAEELTCQFEGGMVTLEAPYTPPAIEAPKDIPVQKEPAEPPVKHNIPIKHE
notes: a stop codon precedes the vector's C-terminal hexa-histidine tag, so the protein is untagged; pET23b construct; also called RvY_08665; source: E. coli BL21 (pLysS), purified (Q-Sepharose ion exchange, Superose 6 size exclusion)
B2: HSP20-3NCT, C-terminally truncated HSP20-3 (stop codon immediately after G191, repeated QNTN-motif removed) (domain or fragment, Ramazzottius varieornatus, UniProt A0A1D1UZ79 1-191, looked up)
chain: MSMQRYDDYNDYGNRQMRPHRGNYEMEPFFGGNLFGGIDHVMRSMTRDLARMEKHIFGSSDTPNIGSLINHNMAMVPNFIERDGQQLAQFQLDVRGFKPEDITIRTSENVMTVTARHEDKSDDHHAIREFRRMVTIPPGMQMEGMKSRLTPNGVLSIEAPFTPQANRQGDFYEIPIQHGSSSNRNSIQNSG
notes: untagged; same forward primer as HSP20-3; pET23b construct; also called CTD-truncated HSP20–3; source: E. coli BL21 (pLysS), purified (Q-Sepharose ion exchange, Superose 6 size exclusion)
B3: human CRYAB (HSPB5) (natural protein, UniProt P02511 1-175, looked up)
chain: MDIAIHHPWIRRPFFPFHSPSRLFDQFFGEHLLESDLFPTSTSLSPFYLRPPSFLRAPSWFDTGLSEMRLEKDRFSVNLDVKHFSPEELKVKVLGDVIEVHGKHEERQDEHGFISREFHRKYRIPADVDPLTITSSLSSDGVLTVNGPRKQVSGPERTIPITREEKPAVTAAPKK
notes: human alpha-B crystallin CRYAB (HSPB5), recombinant; also called recombinant human CRYAB; source: E. coli, purified (ion exchange and size exclusion chromatography; as described previously)
B4: Ramazzottius varieornatus small heat shock protein HSP20-3 (natural protein, UniProt A0A1D1UZ79 1-218, looked up)
chain: MSMQRYDDYNDYGNRQMRPHRGNYEMEPFFGGNLFGGIDHVMRSMTRDLARMEKHIFGSSDTPNIGSLINHNMAMVPNFIERDGQQLAQFQLDVRGFKPEDITIRTSENVMTVTARHEDKSDDHHAIREFRRMVTIPPGMQMEGMKSRLTPNGVLSIEAPFTPQANRQGDFYEIPIQHGSSSNRNSIQNSGQNSSQNTNQNTNQNTNQNTNQNTNQNK
notes: a stop codon precedes the vector's C-terminal hexa-histidine tag, so the protein is untagged; pET23b construct; also called full length HSP20–3; RvY_03967; source: E. coli BL21 (pLysS), purified (Q-Sepharose ion exchange, Superose 6 size exclusion)

This data set deals with the molecule itself. The data set can be described thus: SEC; Superose 6 10/300 column; eluted in 0.5 M NaH2PO4, 0.5 M Na2HPO4, 150 mM NaCl, 5 mM EDTA pH 8.0; calibrated with protein standards (670 kDa to 137 Da); self-association, oligomers. For orientation: SEC sorts molecules by how far they enter the pores of the column.
Consider B1, for which the binding result is given as “binds”.

As to B2, the binding result is listed as “binds”. As for B3, the binding result is “binds”.

In the case of B4, the binding result was “binds”.
